Results on 15 molecules are retold here after patent US20180303913A1.

“And” between values parts separate entries of the source, which are not always exact repeats. Identical values can stand only once.

In the experiment the target is T1, Flag-HA-ID2 (human) (UniProt Q02363).
T1 sequence: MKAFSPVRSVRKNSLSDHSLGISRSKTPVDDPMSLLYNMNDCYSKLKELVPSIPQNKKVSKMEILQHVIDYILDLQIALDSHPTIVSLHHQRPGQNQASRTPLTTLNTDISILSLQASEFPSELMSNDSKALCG
The experiment is described as follows: tandem Flag/HA affinity purification of Flag-HA-ID2 complexes from NCI-H1299 cells, LC-MS/MS; CRAPome specificity score.

In the case of “transcription factor 12 isoform b (from UniProt Q99081)”, the Calculated score [(#peptide*#xcorr)/(AveSC*MaxSC*Found# of Expt.)] was 7.71.

In the case of “78 kDa glucose-regulated protein (from UniProt P11021)”, the Calculated score [(#peptide*#xcorr)/(AveSC*MaxSC*Found# of Expt.)] was 0.000131 and 5.32e-05.

In the case of “RING finger protein 113A (from UniProt O15541)”, the Calculated score [(#peptide*#xcorr)/(AveSC*MaxSC*Found# of Expt.)] was 0.212.

On to tubulin beta-4B chain, for which the Calculated score [(#peptide*#xcorr)/(AveSC*MaxSC*Found# of Expt.)] was 1.79e-05.

As to “Elongation factor 1-alpha 2 (from UniProt Q05639)”, the Calculated score [(#peptide*#xcorr)/(AveSC*MaxSC*Found# of Expt.)] was 1.18e-05.

For “heat shock cognate 71 kDa protein isoform 1 (from UniProt P11142)”, the Calculated score [(#peptide*#xcorr)/(AveSC*MaxSC*Found# of Expt.)] was 3.81e-06.

Take “Heat shock cognate 71 kDa protein (NP_694881) (from UniProt P11142-2)”: the Calculated score [(#peptide*#xcorr)/(AveSC*MaxSC*Found# of Expt.)] was 1.88e-05.

Turning to “Protein arginine N-methyltransferase 5 (from UniProt O14744) (enzyme)”, the Calculated score [(#peptide*#xcorr)/(AveSC*MaxSC*Found# of Expt.)] was 6.8e-07.

Regarding Tubulin beta chain, the Calculated score [(#peptide*#xcorr)/(AveSC*MaxSC*Found# of Expt.)] is 7.15e-06.

On to “heat shock 70 kDa protein 1-like (from UniProt P34931)”, for which the Calculated score [(#peptide*#xcorr)/(AveSC*MaxSC*Found# of Expt.)] is 7.39e-06.

As to “Heat shock 70 kDa protein 1A/1B (from UniProt P0DMV8)”, the Calculated score [(#peptide*#xcorr)/(AveSC*MaxSC*Found# of Expt.)] was 4.5e-05.

For “Transcription factor E2-alpha (from UniProt P15923)”, the Calculated score [(#peptide*#xcorr)/(AveSC*MaxSC*Found# of Expt.)] is 23.8.

With Tubulin alpha-1B chain, the Calculated score [(#peptide*#xcorr)/(AveSC*MaxSC*Found# of Expt.)] was 1.25e-05.

As to “GR75_HUMAN Stress-70 protein (from UniProt P38646)”, the Calculated score [(#peptide*#xcorr)/(AveSC*MaxSC*Found# of Expt.)] is 1.1e-05.

B1: Elongator complex protein 4 (protein)
chain: MAAVATCGSVAASTGSAVATASKSNVTSFQRRGPRASVTNDSGPRLVSIAGTRPSVRNGQLLVSTGLPALDQLLGGGLAVGTVLLIEEDKYNIYSPLLFKYFLAEGIVNGHTLLVASAKEDPANILQELPAPLLDDKCKKEFDEDVYNHKTPESNIKMKIAWRYQLLPKMEIGPVSSSRFGHYYDASKRMPQELIEASNWHGFFLPEKISSTLKVEPCSLTPGYTKLLQFIQNIIYEEGFDGSNPQKKQRNILRIGIQNLGSPLWGDDICCAENGGNSHSLTKFLYVLRGLLRTSLSACIITMPTHLIQNKAIIARVTTLSDVVVGLESFIGSERETNPLYKDYHGLIHIRQIPRLNNLICDESDVKDLAFKLKRKLFTIERLHLPPDLSDTVSRSSKMDLAESAKRLGPGCGMMAGGKKHLDF
With B1, the Calculated score [(#peptide*#xcorr)/(AveSC*MaxSC*Found# of Expt.)] is 0.0043.
